Data taken from the supplement of paper PMC7877785.
± gives the uncertainty stated by the source.

Experiment: self-splicing fitness, log relative to wild type (ln ratio); higher = more splicing; Tetrahymena group I intron in knt gene, E. coli kanamycin selection, DiMSum; sequences stand for … in CUCUCU…GGAGGGAAAAGUUAUCAGGCAUGCACCUGGUAGCUAGUCUUUAAACCAAUAGAUUGCAUCGGUUUAAAAGGCAAGACCGUCAAAUUGCGGGAAAGGGGUCAACAGCCGUUCAGUACCAAGUCUCAGGGGAAACUUUGAGAUGGCCUUGCAAAGGGUAUGGUAAUAAGCUGACGGACAUGGUCCUAACCACGCAGCCAAGUCCUAAGUCAACAGAUCUUCUGUUGAUAUGGAUGCAGUUCACAGACUAAAUGUCGGUCGGGGAAGAUGUAUUCUUCUCAUAAGAUAUAGUCGGACCUCUCCUUAAUGGGAGCUAGCGGAUGAAGUGAUGCAACACUGGAGCCGCUGGGAACUAAUUUGUAUGCGAAAGUAUAUUGAUUAGUUUUGGAGUACUCGUGGUCG
Method in brief: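 Fitness was computed with DiMSum as the error-weighted combination of replicate fold changes, kanamycin versus none, each normalised to wild type. The library randomised all eight intron nucleotides of the P1ex region, with the intron placed in the knt kanamycin-resistance gene on pET-22b(+) in E. coli BL21(DE3). Six replicate transformations were grown overnight at 37°C or 30°C on LB agar with or without 25 μg/mL kanamycin, plus 100 μg/mL carbenicillin, 50 μM IPTG and 0.2% rhamnose. Pooled colonies were amplicon-sequenced on an Illumina HiSeq 2500.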

Sequence | self-splicing fitness (ln) (30 °C) | self-splicing fitness (ln) (37 °C)
GGUUAGCAAUAUUACGGUCA | 0.387 ± 0.31 | -1.03 ± 0.12
GGUUAGCAAUAUUACGUAGU | -1.03 ± 0.097 | -0.417 ± 0.12
GGUUAGCAAUAUUACGUGUA | -1.7 ± 0.13 | -0.817 ± 0.1
GGUUAGCAAUAUUACGUUGC | -2.41 ± 0.22 | -1.12 ± 0.42
GUAAAGCAAUAUUACGAAGA | -1.9 ± 0.1 | -1.03 ± 0.12
GUAAAGCAAUAUUACGACCG | -0.799 ± 0.43 | -0.23 ± 0.36
GUAAAGCAAUAUUACGAGAA | -2.06 ± 0.14 | -0.181 ± 0.21
GUAAAGCAAUAUUACGAUAA | -0.115 ± 0.076 | 0.632 ± 0.11
GUAAAGCAAUAUUACGAUGU | -0.534 ± 0.081 | -0.0801 ± 0.1
GUAAAGCAAUAUUACGCACC | -0.664 ± 0.49 | –
GUAAAGCAAUAUUACGCCUC | -0.782 ± 0.12 | 0.463 ± 0.16
GUAAAGCAAUAUUACGCGCC | -2.22 ± 0.2 | -1.03 ± 0.23
GUAAAGCAAUAUUACGGAAG | -2.86 ± 0.18 | -1.36 ± 0.15
GUAAAGCAAUAUUACGGAGG | -3.29 ± 0.37 | -2.45 ± 0.38
GUAAAGCAAUAUUACGGAGU | -3.08 ± 0.26 | -2.81 ± 0.29
GUAAAGCAAUAUUACGGGCA | -0.131 ± 0.13 | -0.0319 ± 0.15
GUAAAGCAAUAUUACGGGGG | -3.31 ± 0.18 | -2.87 ± 0.31
GUAAAGCAAUAUUACGGUAA | -1.09 ± 0.086 | -0.336 ± 0.11
GUAAAGCAAUAUUACGUAGU | -2.42 ± 0.12 | -1.36 ± 0.18
GUAAAGCAAUAUUACGUCCG | -0.907 ± 0.088 | -0.395 ± 0.14
GUAAAGCAAUAUUACGUGCA | 0.139 ± 0.058 | 0.551 ± 0.093
GUAAAGCAAUAUUACGUGUA | -1.44 ± 0.064 | -0.702 ± 0.087
GUAAAGCAAUAUUACGUUGU | -3.6 ± 0.17 | -2.13 ± 0.19
GUAAAGCAAUAUUACGUUUA | -1.08 ± 0.077 | -0.69 ± 0.11
GUACAGCAAUAUUACGAAAG | -3.47 ± 0.1 | -1.04 ± 0.092

Sequence | self-splicing fitness (ln) (30 °C) | self-splicing fitness (ln) (37 °C)
GUACAGCAAUAUUACGAAGC | -1.83 ± 0.17 | -1.5 ± 0.28
GUACAGCAAUAUUACGAAGG | – | -0.639 ± 0.25
GUACAGCAAUAUUACGAGAU | -3.53 ± 0.16 | -2.03 ± 0.11
GUACAGCAAUAUUACGAGCC | -1.6 ± 0.36 | -2.01 ± 0.46
GUACAGCAAUAUUACGAUAU | -2.07 ± 0.1 | -1.48 ± 0.13
GUACAGCAAUAUUACGAUGA | -1.87 ± 0.097 | -0.889 ± 0.11
GUACAGCAAUAUUACGAUGU | -1.33 ± 0.081 | 0.106 ± 0.088
GUACAGCAAUAUUACGCACA | -1.52 ± 0.11 | -0.471 ± 0.11
GUACAGCAAUAUUACGCCAG | -3.75 ± 0.24 | -2.32 ± 0.45
GUACAGCAAUAUUACGCCUC | -0.924 ± 0.14 | -0.219 ± 0.16
GUACAGCAAUAUUACGCCUU | -1.23 ± 0.095 | -0.531 ± 0.11
GUACAGCAAUAUUACGCGUC | -3.1 ± 0.21 | -0.709 ± 0.14
GUACAGCAAUAUUACGCUCC | -1.81 ± 0.29 | -0.404 ± 0.23
GUACAGCAAUAUUACGCUUA | -1.58 ± 0.08 | -1.03 ± 0.091
GUACAGCAAUAUUACGGAAA | -2.77 ± 0.22 | -2.72 ± 0.25
GUACAGCAAUAUUACGGAAC | -3.3 ± 0.19 | -0.753 ± 0.17
GUACAGCAAUAUUACGGAGC | -3.06 ± 0.14 | -2.17 ± 0.15
GUACAGCAAUAUUACGGAUU | -2.88 ± 0.11 | -0.823 ± 0.084
GUACAGCAAUAUUACGGCAA | -1.59 ± 0.15 | -1.32 ± 0.12
GUACAGCAAUAUUACGGUAC | -4.08 ± 0.43 | -2.8 ± 0.26
GUACAGCAAUAUUACGGUCC | -0.203 ± 0.11 | -0.766 ± 0.13
GUACAGCAAUAUUACGUAAU | -1.66 ± 0.087 | -0.807 ± 0.11
GUACAGCAAUAUUACGUCUG | -2.04 ± 0.23 | -2.09 ± 0.18
GUACAGCAAUAUUACGUGCC | -2.93 ± 0.13 | -2.54 ± 0.22
GUACAGCAAUAUUACGUUCA | -1.51 ± 0.15 | -0.775 ± 0.17

Sequence | self-splicing fitness (ln) (30 °C) | self-splicing fitness (ln) (37 °C)
GUAGAGCAAUAUUACGAAAG | -1.56 ± 0.32 | –
GUAGAGCAAUAUUACGAAUG | -3.89 ± 0.3 | -2.16 ± 0.21
GUAGAGCAAUAUUACGAGUA | -3.5 ± 0.28 | -1.69 ± 0.29
GUAGAGCAAUAUUACGAGUG | -1.59 ± 0.18 | -2.1 ± 0.21
GUAGAGCAAUAUUACGAUAU | -0.731 ± 0.088 | 0.237 ± 0.12
GUAGAGCAAUAUUACGCAUU | -2.45 ± 0.18 | -0.619 ± 0.25
GUAGAGCAAUAUUACGCGUG | -1.18 ± 0.11 | -0.777 ± 0.18
GUAGAGCAAUAUUACGCUAC | -2.54 ± 0.25 | -2.15 ± 0.34
GUAGAGCAAUAUUACGCUUU | -2.36 ± 0.19 | -2 ± 0.23
GUAGAGCAAUAUUACGGAGA | -2.58 ± 0.3 | –
GUAGAGCAAUAUUACGGAUA | – | -0.969 ± 0.41
GUAGAGCAAUAUUACGGCCG | -0.867 ± 0.16 | 0.266 ± 0.21
GUAGAGCAAUAUUACGGCGA | -1.87 ± 0.13 | -0.23 ± 0.16
GUAGAGCAAUAUUACGGGCU | -2.37 ± 0.3 | -1.89 ± 0.41
GUAGAGCAAUAUUACGGUCG | -2.63 ± 0.19 | -1.8 ± 0.19
GUAGAGCAAUAUUACGGUGA | -2.14 ± 0.13 | -1.09 ± 0.2
GUAGAGCAAUAUUACGUAAA | -4.18 ± 0.36 | -1.4 ± 0.27
GUAGAGCAAUAUUACGUCAU | -1.65 ± 0.1 | -1.36 ± 0.11
GUAGAGCAAUAUUACGUCGU | -0.814 ± 0.084 | -0.0553 ± 0.11
GUAGAGCAAUAUUACGUGAC | -2.42 ± 0.16 | -1.31 ± 0.19
GUAGAGCAAUAUUACGUGCG | -1.13 ± 0.081 | 0.0284 ± 0.12
GUAGAGCAAUAUUACGUGGA | – | -3.25 ± 0.3
GUAGAGCAAUAUUACGUGUC | -1.68 ± 0.094 | -0.37 ± 0.13
GUAUAGCAAUAUUACGAAUU | -3.2 ± 0.22 | -1.13 ± 0.18
GUAUAGCAAUAUUACGACAC | 0.143 ± 0.091 | 0.241 ± 0.12

Sequence | self-splicing fitness (ln) (30 °C) | self-splicing fitness (ln) (37 °C)
GUAUAGCAAUAUUACGACAU | -0.233 ± 0.014 | 0.0814 ± 0.033
GUAUAGCAAUAUUACGCGAA | -2.01 ± 0.36 | -0.808 ± 0.23
GUAUAGCAAUAUUACGCGAC | -2.49 ± 0.3 | –
GUAUAGCAAUAUUACGCGAU | -2.03 ± 0.24 | -1.73 ± 0.26
GUAUAGCAAUAUUACGCGCG | -1.55 ± 0.14 | -0.678 ± 0.15
GUAUAGCAAUAUUACGCGUU | -1.21 ± 0.11 | -1.33 ± 0.17
GUAUAGCAAUAUUACGCUAA | -2.52 ± 0.2 | -1.57 ± 0.16
GUAUAGCAAUAUUACGGACA | -2.7 ± 0.27 | -1.1 ± 0.15
GUAUAGCAAUAUUACGGACU | -1.83 ± 0.16 | -1.27 ± 0.3
GUAUAGCAAUAUUACGGAUA | -1.43 ± 0.27 | -1.55 ± 0.28
GUAUAGCAAUAUUACGGCGA | -1.21 ± 0.097 | -0.087 ± 0.1
GUAUAGCAAUAUUACGGCUC | 0.0185 ± 0.15 | 0.629 ± 0.15
GUAUAGCAAUAUUACGGCUU | -0.746 ± 0.13 | 1.21 ± 0.2
GUAUAGCAAUAUUACGGUCG | -2.06 ± 0.15 | 0.0791 ± 0.15
GUAUAGCAAUAUUACGUCCA | -1.58 ± 0.26 | -0.506 ± 0.23
GUAUAGCAAUAUUACGUCCC | -1.75 ± 0.12 | -0.594 ± 0.16
GUAUAGCAAUAUUACGUCUC | -1.21 ± 0.15 | -0.282 ± 0.15
GUAUAGCAAUAUUACGUUAU | -3.09 ± 0.36 | -1.99 ± 0.21
GUCAAGCAAUAUUACGAGUC | -3.75 ± 0.2 | -2.87 ± 0.26
GUCAAGCAAUAUUACGCAGA | -3.23 ± 0.24 | -2.79 ± 0.3
GUCAAGCAAUAUUACGCAUU | -1.21 ± 0.089 | -1.02 ± 0.13
GUCAAGCAAUAUUACGCGCA | -0.483 ± 0.097 | -0.0303 ± 0.11
